The labels stand for the following.
B1: Intersectin-1, residues 909 to 971; numbered along this chain, Q15811 (parent)
chain: QGEKVEGLQAQALYPWRAKKDNHLNFNKNDVITVLEQQDMWWFGEVQGQKGWFPKSYVKLISG

± gives the uncertainty stated by the source.

This data set covers variants of B1. Put plainly: abundance fitness (aPCA) (normalised: wild type 0, dead -1); higher = more abundant; growth selection in yeast, the domain comes from the species named. Conditions: Homo sapiens.
On to QGEKVEGLQAQALYPWRAKKDNHLNFNKNDVITVLEQQDCWWFGEVQGQKGWFPKSYVKLISG [M40C], for which the abundance fitness was determined as 0.084 ± 0.17.

For QGEKVEGLQAQALYPWRAKKDNHLNFNKNDVITVLEQQDTWWFGEVQGQKGWFPKSYVKLISG [M40T], the abundance fitness was -0.115 ± 0.13. In the case of QGEKVEGLQAQALYPWRAKKDNHLNFNKNDVITVLEQQDIWWFGEVQGQKGWFPKSYVKLISG [M40I], the abundance fitness is 0.034 ± 0.17. With QGEKVEGLQAQALYPWRAKKDNHLNFNKNDVITVLEQQDPWWFGEVQGQKGWFPKSYVKLISG [M40P], the abundance fitness was 0.025 ± 0.11. On to QGEKVEGLQAQALYPWRAKKDNHLNFNKNDVITVLEQQDSWWFGEVQGQKGWFPKSYVKLISG [M40S], for which the abundance fitness came to 0.013 ± 0.12. With QGEKVEGLQAQALYPWRAKKDNHLNFNKNDVITVLEQQDRWWFGEVQGQKGWFPKSYVKLISG [M40R] the figure was -0.127 ± 0.1.

As to QGEKVEGLQAQALYPWRAKKDNHLNFNKNDVITVLEQQDLWWFGEVQGQKGWFPKSYVKLISG [M40L], the abundance fitness is 0.008 ± 0.094. In the case of QGEKVEGLQAQALYPWRAKKDNHLNFNKNDVITVLEQQDFWWFGEVQGQKGWFPKSYVKLISG [M40F], the abundance fitness is -0.233 ± 0.38. In the case of QGEKVEGLQAQALYPWRAKKDNHLNFNKNDVITVLEQQDVWWFGEVQGQKGWFPKSYVKLISG [M40V], the abundance fitness was -0.164 ± 0.1.

Take QGEKVEGLQAQALYPWRAKKDNHLNFNKNDVITVLEQQYMWWFGEVQGQKGWFPKSYVKLISG [D39Y]: the abundance fitness is -0.208 ± 0.27. With QGEKVEGLQAQALYPWRAKKDNHLNFNKNDVITVLEQQKMWWFGEVQGQKGWFPKSYVKLISG [D39K] the figure was -0.268 ± 0.13; with QGEKVEGLQAQALYPWRAKKDNHLNFNKNDVITVLEQQHMWWFGEVQGQKGWFPKSYVKLISG [D39H], -0.454 ± 0.39; with QGEKVEGLQAQALYPWRAKKDNHLNFNKNDVITVLEQQQMWWFGEVQGQKGWFPKSYVKLISG [D39Q], -0.328 ± 0.16. With QGEKVEGLQAQALYPWRAKKDNHLNFNKNDVITVLEQQEMWWFGEVQGQKGWFPKSYVKLISG [D39E] the figure was -0.071 ± 0.15; with QGEKVEGLQAQALYPWRAKKDNHLNFNKNDVITVLEQQPMWWFGEVQGQKGWFPKSYVKLISG [D39P], -0.297 ± 0.15. With QGEKVEGLQAQALYPWRAKKDNHLNFNKNDVITVLEQQRMWWFGEVQGQKGWFPKSYVKLISG [D39R] the figure was -0.182 ± 0.072; with QGEKVEGLQAQALYPWRAKKDNHLNFNKNDVITVLEQQMMWWFGEVQGQKGWFPKSYVKLISG [D39M], -0.221 ± 0.18; with QGEKVEGLQAQALYPWRAKKDNHLNFNKNDVITVLEQQCMWWFGEVQGQKGWFPKSYVKLISG [D39C], -0.262 ± 0.24.

As for QGEKVEGLQAQALYPWRAKKDNHLNFNKNDVITVLEQQGMWWFGEVQGQKGWFPKSYVKLISG [D39G], the abundance fitness is -0.014 ± 0.057. With QGEKVEGLQAQALYPWRAKKDNHLNFNKNDVITVLEQQWMWWFGEVQGQKGWFPKSYVKLISG [D39W] the figure was -0.588 ± 0.16; with QGEKVEGLQAQALYPWRAKKDNHLNFNKNDVITVLEQQAMWWFGEVQGQKGWFPKSYVKLISG [D39A], -0.014 ± 0.093. With QGEKVEGLQAQALYPWRAKKDNHLNFNKNDVITVLEQQSMWWFGEVQGQKGWFPKSYVKLISG [D39S] the figure was -0.127 ± 0.18. With QGEKVEGLQAQALYPWRAKKDNHLNFNKNDVITVLEQQFMWWFGEVQGQKGWFPKSYVKLISG [D39F] the figure was -0.313 ± 0.17; with QGEKVEGLQAQALYPWRAKKDNHLNFNKNDVITVLEQQTMWWFGEVQGQKGWFPKSYVKLISG [D39T], -0.009 ± 0.2; with QGEKVEGLQAQALYPWRAKKDNHLNFNKNDVITVLEQQVMWWFGEVQGQKGWFPKSYVKLISG [D39V], -0.304 ± 0.14. QGEKVEGLQAQALYPWRAKKDNHLNFNKNDVITVLEQQLMWWFGEVQGQKGWFPKSYVKLISG [D39L]: the abundance fitness was -0.385 ± 0.17. As for QGEKVEGLQAQALYPWRAKKDNHLNFNKNDVITVLEQQNMWWFGEVQGQKGWFPKSYVKLISG [D39N], the abundance fitness is -0.215 ± 0.15. With QGEKVEGLQAQALYPWRAKKDNHLNFNKNDVITVLEHQDMWWFGEVQGQKGWFPKSYVKLISG [Q37H], the abundance fitness is -0.274 ± 0.31. With QGEKVEGLQAQALYPWRAKKDNHLNFNKNDVITVLEPQDMWWFGEVQGQKGWFPKSYVKLISG [Q37P] the figure was -0.289 ± 0.18; with QGEKVEGLQAQALYPWRAKKDNHLNFNKNDVITVLEAQDMWWFGEVQGQKGWFPKSYVKLISG [Q37A], -0.036 ± 0.21; with QGEKVEGLQAQALYPWRAKKDNHLNFNKNDVITVLERQDMWWFGEVQGQKGWFPKSYVKLISG [Q37R], -0.06 ± 0.11. Take QGEKVEGLQAQALYPWRAKKDNHLNFNKNDVITVLEFQDMWWFGEVQGQKGWFPKSYVKLISG [Q37F]: the abundance fitness is -0.078 ± 0.46. As to QGEKVEGLQAQALYPWRAKKDNHLNFNKNDVITVLEMQDMWWFGEVQGQKGWFPKSYVKLISG [Q37M], the abundance fitness was 0.323 ± 0.2. With QGEKVEGLQAQALYPWRAKKDNHLNFNKNDVITVLECQDMWWFGEVQGQKGWFPKSYVKLISG [Q37C] the figure was -0.127 ± 0.17; with QGEKVEGLQAQALYPWRAKKDNHLNFNKNDVITVLEIQDMWWFGEVQGQKGWFPKSYVKLISG [Q37I], -0.286 ± 0.3; with QGEKVEGLQAQALYPWRAKKDNHLNFNKNDVITVLEEQDMWWFGEVQGQKGWFPKSYVKLISG [Q37E], -0.159 ± 0.29. For QGEKVEGLQAQALYPWRAKKDNHLNFNKNDVITVLEKQDMWWFGEVQGQKGWFPKSYVKLISG [Q37K], the abundance fitness amounted to 0.149 ± 0.28. For the variant QGEKVEGLQAQALYPWRAKKDNHLNFNKNDVITVLEVQDMWWFGEVQGQKGWFPKSYVKLISG [Q37V], the abundance fitness is -0.588 ± 0.24.

Turning to QGEKVEGLQAQALYPWRAKKDNHLNFNKNDVITVLETQDMWWFGEVQGQKGWFPKSYVKLISG [Q37T], the abundance fitness is -0.052 ± 0.18. With QGEKVEGLQAQALYPWRAKKDNHLNFNKNDVITVLEGQDMWWFGEVQGQKGWFPKSYVKLISG [Q37G] the figure was -0.085 ± 0.1; with QGEKVEGLQAQALYPWRAKKDNHLNFNKNDVITVLESQDMWWFGEVQGQKGWFPKSYVKLISG [Q37S], -0.294 ± 0.14. With QGEKVEGLQAQALYPWRAKKDNHLNFNKNDVITVLENQDMWWFGEVQGQKGWFPKSYVKLISG [Q37N] the figure was -0.279 ± 0.22; with QGEKVEGLQAQALYPWRAKKDNHLNFNKNDVITVLEWQDMWWFGEVQGQKGWFPKSYVKLISG [Q37W], -0.162 ± 0.16.
